IntAct's records for PubMed 17934474

Pre-mRNA-splicing factor 8 (Saccharomyces cerevisiae), P33334 F2382L, sequence (P33334 whole entry F2382L): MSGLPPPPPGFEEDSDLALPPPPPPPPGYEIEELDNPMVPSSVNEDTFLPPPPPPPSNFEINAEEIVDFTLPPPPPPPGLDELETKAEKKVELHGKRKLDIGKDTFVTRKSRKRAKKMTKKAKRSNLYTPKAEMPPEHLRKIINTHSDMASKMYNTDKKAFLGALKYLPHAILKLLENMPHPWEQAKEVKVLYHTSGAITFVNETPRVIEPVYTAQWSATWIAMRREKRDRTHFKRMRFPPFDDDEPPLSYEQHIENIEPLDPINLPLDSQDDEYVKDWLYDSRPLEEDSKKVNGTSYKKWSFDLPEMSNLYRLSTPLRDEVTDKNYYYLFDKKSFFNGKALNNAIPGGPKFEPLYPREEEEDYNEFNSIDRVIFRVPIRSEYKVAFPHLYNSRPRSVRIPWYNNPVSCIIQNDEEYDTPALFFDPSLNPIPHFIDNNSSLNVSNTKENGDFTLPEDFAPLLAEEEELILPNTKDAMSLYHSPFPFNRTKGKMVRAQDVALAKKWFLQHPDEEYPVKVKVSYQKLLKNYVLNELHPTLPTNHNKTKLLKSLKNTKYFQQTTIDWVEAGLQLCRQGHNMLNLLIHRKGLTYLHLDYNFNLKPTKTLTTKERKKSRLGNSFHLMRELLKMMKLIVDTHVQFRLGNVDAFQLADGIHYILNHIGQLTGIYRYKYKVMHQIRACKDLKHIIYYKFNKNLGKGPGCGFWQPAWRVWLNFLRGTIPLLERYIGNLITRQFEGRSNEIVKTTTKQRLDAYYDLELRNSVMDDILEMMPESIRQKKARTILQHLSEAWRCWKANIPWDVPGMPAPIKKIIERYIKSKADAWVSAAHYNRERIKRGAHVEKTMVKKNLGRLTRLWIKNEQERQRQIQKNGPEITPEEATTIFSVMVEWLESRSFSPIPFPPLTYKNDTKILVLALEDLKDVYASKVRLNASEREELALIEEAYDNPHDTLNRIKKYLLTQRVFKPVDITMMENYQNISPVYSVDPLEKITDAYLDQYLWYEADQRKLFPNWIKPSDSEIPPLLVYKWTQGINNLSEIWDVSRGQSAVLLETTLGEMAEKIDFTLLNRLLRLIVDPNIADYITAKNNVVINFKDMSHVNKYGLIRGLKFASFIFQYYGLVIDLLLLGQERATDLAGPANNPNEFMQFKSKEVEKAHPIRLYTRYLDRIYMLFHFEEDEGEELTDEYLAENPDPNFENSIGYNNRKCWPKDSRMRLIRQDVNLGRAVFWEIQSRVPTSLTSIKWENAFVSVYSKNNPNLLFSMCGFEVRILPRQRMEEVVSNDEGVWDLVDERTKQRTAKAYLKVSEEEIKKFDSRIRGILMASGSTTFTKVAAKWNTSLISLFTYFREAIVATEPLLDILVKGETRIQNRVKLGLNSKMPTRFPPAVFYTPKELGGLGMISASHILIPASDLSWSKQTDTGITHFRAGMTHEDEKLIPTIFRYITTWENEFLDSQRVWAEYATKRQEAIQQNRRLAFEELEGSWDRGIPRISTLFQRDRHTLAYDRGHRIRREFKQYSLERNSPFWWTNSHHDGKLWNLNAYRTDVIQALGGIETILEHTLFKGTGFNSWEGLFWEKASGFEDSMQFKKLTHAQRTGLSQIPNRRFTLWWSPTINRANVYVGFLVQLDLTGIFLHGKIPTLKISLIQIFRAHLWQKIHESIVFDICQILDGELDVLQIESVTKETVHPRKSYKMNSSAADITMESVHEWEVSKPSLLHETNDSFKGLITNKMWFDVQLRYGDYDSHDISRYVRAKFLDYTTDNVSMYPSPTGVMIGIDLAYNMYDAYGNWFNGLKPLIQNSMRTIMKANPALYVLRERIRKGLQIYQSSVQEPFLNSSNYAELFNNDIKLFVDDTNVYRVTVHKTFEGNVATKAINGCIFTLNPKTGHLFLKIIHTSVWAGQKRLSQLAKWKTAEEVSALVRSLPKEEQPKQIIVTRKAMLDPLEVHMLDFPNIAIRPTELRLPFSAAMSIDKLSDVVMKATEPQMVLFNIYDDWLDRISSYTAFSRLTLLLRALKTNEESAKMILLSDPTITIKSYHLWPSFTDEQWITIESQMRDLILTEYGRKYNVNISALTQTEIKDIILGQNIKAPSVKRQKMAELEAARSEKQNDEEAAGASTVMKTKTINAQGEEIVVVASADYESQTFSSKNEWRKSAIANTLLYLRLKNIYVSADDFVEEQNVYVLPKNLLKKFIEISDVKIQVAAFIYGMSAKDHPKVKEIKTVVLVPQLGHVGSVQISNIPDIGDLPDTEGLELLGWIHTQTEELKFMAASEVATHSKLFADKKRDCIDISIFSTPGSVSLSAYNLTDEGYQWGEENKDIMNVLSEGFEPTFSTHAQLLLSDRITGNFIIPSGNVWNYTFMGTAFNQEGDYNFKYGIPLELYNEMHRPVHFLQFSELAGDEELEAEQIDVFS

The substances below were run against brr2_yeast BRR2 (UniProt P32639).
brr2_yeast BRR2, sequence (P32639 whole entry): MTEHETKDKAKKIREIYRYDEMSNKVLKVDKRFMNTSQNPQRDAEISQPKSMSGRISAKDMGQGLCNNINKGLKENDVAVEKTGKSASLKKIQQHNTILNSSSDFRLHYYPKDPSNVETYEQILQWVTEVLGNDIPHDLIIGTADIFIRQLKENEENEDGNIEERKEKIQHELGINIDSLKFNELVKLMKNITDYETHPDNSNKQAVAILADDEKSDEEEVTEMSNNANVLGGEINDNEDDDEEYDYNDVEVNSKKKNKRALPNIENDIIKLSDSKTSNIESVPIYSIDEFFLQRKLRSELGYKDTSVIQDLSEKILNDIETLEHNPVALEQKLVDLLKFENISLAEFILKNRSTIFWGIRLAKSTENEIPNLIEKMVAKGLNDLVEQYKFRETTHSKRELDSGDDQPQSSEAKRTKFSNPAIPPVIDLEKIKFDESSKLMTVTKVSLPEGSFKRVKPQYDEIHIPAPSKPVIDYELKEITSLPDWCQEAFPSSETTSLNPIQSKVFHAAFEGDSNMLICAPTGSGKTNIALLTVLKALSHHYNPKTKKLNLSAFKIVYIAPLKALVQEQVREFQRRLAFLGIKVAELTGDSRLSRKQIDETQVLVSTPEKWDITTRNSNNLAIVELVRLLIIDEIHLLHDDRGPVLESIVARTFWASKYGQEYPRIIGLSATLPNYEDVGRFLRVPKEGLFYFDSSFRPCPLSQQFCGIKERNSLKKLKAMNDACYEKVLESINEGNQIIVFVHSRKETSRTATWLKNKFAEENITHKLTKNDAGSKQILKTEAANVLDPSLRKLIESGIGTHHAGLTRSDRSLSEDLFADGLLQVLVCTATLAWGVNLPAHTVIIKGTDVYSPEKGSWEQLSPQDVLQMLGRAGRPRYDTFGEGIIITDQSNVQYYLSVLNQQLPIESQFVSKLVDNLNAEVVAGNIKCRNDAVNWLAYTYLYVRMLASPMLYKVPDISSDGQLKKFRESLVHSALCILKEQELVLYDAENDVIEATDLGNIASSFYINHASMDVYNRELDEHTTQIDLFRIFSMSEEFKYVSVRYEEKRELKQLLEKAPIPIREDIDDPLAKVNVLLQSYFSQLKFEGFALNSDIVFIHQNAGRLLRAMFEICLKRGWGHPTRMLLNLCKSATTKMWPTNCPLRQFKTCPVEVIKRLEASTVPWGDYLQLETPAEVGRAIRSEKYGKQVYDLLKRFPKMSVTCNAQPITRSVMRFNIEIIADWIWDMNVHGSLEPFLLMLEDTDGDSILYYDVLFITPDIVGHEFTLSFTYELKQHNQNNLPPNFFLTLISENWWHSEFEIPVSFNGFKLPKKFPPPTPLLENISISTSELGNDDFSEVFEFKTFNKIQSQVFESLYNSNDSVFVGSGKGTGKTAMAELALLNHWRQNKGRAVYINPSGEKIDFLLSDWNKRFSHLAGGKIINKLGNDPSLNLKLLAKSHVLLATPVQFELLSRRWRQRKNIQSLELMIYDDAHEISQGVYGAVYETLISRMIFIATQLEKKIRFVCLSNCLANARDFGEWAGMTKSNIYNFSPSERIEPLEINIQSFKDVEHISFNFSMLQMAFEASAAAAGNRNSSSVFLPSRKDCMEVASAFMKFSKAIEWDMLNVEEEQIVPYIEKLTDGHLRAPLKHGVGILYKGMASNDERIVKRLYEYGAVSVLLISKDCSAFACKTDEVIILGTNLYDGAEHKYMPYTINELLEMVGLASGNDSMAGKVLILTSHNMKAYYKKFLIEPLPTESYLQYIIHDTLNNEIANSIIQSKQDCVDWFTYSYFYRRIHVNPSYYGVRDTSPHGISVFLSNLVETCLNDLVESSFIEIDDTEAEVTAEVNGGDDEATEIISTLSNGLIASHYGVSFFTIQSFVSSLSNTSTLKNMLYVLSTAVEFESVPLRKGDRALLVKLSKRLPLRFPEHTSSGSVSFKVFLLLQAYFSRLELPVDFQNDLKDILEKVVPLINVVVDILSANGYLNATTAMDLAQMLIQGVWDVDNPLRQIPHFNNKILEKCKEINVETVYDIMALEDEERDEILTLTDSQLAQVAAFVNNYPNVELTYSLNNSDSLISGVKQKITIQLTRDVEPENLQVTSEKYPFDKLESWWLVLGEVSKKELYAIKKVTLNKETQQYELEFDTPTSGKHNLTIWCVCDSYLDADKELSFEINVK
In the case of “Pre-mRNA-splicing factor 8 (Saccharomyces cerevisiae), P33334 H2387P”, the “effect of a mutation on the interaction” value is reported as “disrupting interaction”.
For “Pre-mRNA-splicing factor 8 (Saccharomyces cerevisiae), P33334 P2379T”, the “effect of a mutation on the interaction” value was “decreasing interaction”.
With “Pre-mRNA-splicing factor 8 (Saccharomyces cerevisiae), P33334 F2382L” the “effect of a mutation on the interaction” value was “decreasing interaction”.
For “Pre-mRNA-splicing factor 8 (Saccharomyces cerevisiae), P33334 R2388G”, the “effect of a mutation on the interaction” value was “disrupting interaction”.
For “Pre-mRNA-splicing factor 8 (Saccharomyces cerevisiae), P33334 R2388K”, the “effect of a mutation on the interaction” value was “disrupting interaction”.
For “Pre-mRNA-splicing factor 8 (Saccharomyces cerevisiae), P33334 H2387R”, the “effect of a mutation on the interaction” value was “disrupting interaction”.
In the case of “Pre-mRNA-splicing factor 8 (Saccharomyces cerevisiae), P33334 F2392L”, the “effect of a mutation on the interaction” value is reported as “disrupting interaction”.
